Measurements as given in PMC6915026.

Target: alpha-synuclein (UniProt P37840 1-140)
Test: interdigitated electrode current change (aptamer-GNP immobilized); 1 uM protein; titration 10 pM-1 uM, detection limit 10 pM (not a Kd); Aptamer-GNP on APTES-modified IDE, blocked with 1 M ethanolamine (30 min, RT); PBS listed as reagent, binding buffer, salt, pH and temperature not stated

B1: antisynuclein aptamer (ssDNA)
DNA: ATAGTCCCATCATTCATTGTATGGTACGGCGCGGTGGCGGGTGCGTGGAGATATTAGCAAGTGTCA
  binding result: binds
